# Patent US20240287161A1 (NATIONAL UNIVERSITY CORPORATION TOTTORI UNIVERSITY, published 2024)
# B1: NT-193 (recombinant human IgG1/kappa antibody) (antibody, V domains shown)
# VH: EVQLQQWGAGLLKPSETLSLTCAVYGGSFSGYYWSWIRQPPGKGLEWIGEINHSGSTNYNPSLKSRVTISVDTSKNQFSLKLSSVTAADTAVYYCARGWDLDYYYGMDVWGQGTTVTVSS
# VL: DIRMTQSPSAMSASVGDRVTVTCRASQGIGNYLAWFQLKPGKVPKRLIYAASSLQSGVPARFSGGGSGTEFTLTISSLQPEDFATYYCLQHGFLPWTFGQGTKLEIK
# B2: NT-108 (recombinant human IgG1/kappa antibody) (antibody, V domains shown)
# VH: EVQLQQSGPGLVKPSQTLSLTCSISGDSVSSNSAAWNWIRQSPSRGLEWLGRTYYRSKWYNDYAGTVKSRIAINPDTSKNQFSLHLNSVTPEDTAVYFCARVISVAGYAFDIWGQGTMVTVSS
# VL: EIVLTQSPGTLSLSPGERATLSCRASQSVSSTFLAWYQQKPGQAPRLLIYGASYMATGIPDRFSGSGSGTDFTLTISRLEPEDFAVYYCQQYGSSLTFGGGTKLEIK
# B3: NT-108, human IgG2 subclass (antibody, V domains shown)
# VH: B2 VH
# VL: B2 VL
# B4: NT-108, human IgG3 subclass (antibody, V domains shown)
# VH: B2 VH
# VL: B2 VL
# B5: NT-108, human IgG4 subclass (antibody, V domains shown)
# VH: B2 VH
# VL: B2 VL
# B6: NT-193, human IgG2 subclass (antibody, V domains shown)
# VH: B1 VH
# VL: B1 VL
# B7: NT-193, human IgG3 subclass (antibody, V domains shown)
# VH: B1 VH
# VL: B1 VL
# B8: NT-193, human IgG4 subclass (antibody, V domains shown)
# VH: B1 VH
# VL: B1 VL
# Columns and labels:
# [1] = target: T1, SARS-CoV2 S protein on VSV pseudovirus (SARS-CoV-2, UniProt P0DTC2 14-1273); assay: cell-based or functional assay
# [2] = target: T2, SARS-CoV1 spike protein on VSV pseudovirus (SARS-CoV-1, UniProt P59594 14-1255); assay: cell-based or functional assay
# Authentic CoV2 [3] = target: T3, Authentic CoV2 (SARS-CoV-2 JPN/TY/WK-521); assay: cell-based or functional assay
# Authentic CoV2 [4] = target: T3, Authentic CoV2; assay: cell-based or functional assay; remark: listed apart in the source
# [5] = target: T2, SARS-CoV1 spike protein on VSV …; assay: cell-based or functional assay; remark: listed apart in the source
# [6] = target: T1, SARS-CoV2 S protein on VSV pseudovirus; assay: cell-based or functional assay; remark: listed apart in the source
# [7] = target: MERS-CoV recombinant S protein RBD region, 9x His tag (Example 1) (MERS-CoV, UniProt K9N5Q8 367-606); assay: ELISA on RBD-coated plate (FIG. 3)
# [8] = target: SARS-CoV1 recombinant S protein RBD region, 9x His tag (Example 1) (SARS-CoV1, UniProt P59594 306-527); assay: ELISA on RBD-coated plate (FIG. 3)
# [9] = target: SARS-CoV-2 spike receptor-binding domain (RBD, amino acids 322 to 536), histidine-tagged (Example 2) (SARS-CoV-2, UniProt P0DTC2 322-536)
Binder,"IC50, authentic virus neutralization [NT-193] (Authentic CoV2 [4]) [µg/mL]","IC50, pseudovirus neutralization [NT-193] [6] [µg/mL]","IC50, authentic virus neutralization [NT-108] (Authentic CoV2 [4]) [µg/mL]","IC50, pseudovirus neutralization [NT-108] [6] [µg/mL]",other results
B1,0.241,0.0111,,,"IC50, pseudovirus neutralization [1]: 0.0209 µg/mL; IC50 of the neutralizing activity against SARS-CoV (pseudovirus) [2]: 0.013 µg/mL; IC50, authentic virus neutralization (Authentic CoV2 [3]): 0.0851 µg/mL; IC50, pseudovirus neutralization [5]: 0.0061 µg/mL"
B2,,,0.116,0.0057,"binding result [7]: no binding; binding result [8]: no binding; IC50, pseudovirus neutralization [1]: 0.0061 µg/mL; IC50, authentic virus neutralization (Authentic CoV2 [3]): 0.0403 µg/mL; EC50 [9]: 0.455 µg/mL"
B3,,,0.101,0.002,
B4,,,0.049,0.001,
B5,,,0.116,0.0031,
B6,0.212,0.0065,,,
B7,0.127,0.001,,,
B8,0.247,0.0044,,,
